Test system: Escherichia coli TOP10
Assay: shrunken log2 fold change of peptide-encoding DNA abundance (4.5 h post-induction vs induction); higher = less antimicrobial activity (less host growth inhibition)
Conditions: time post-induction: 4.5 h; library: site-saturation at positions 5, 18, 19, 20
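Further: peptides expressed intracellularly from a pBAD plasmid library in pooled LB shake-flask culture, induced with 0.3% L-arabinose, DNA abundance read by NGS, three biological replicates, DESeq2 with apeglm shrinkage.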

Sequence	shrunken log2 fold change
RRIRPRPPRLPRPRPRPGQFPRP	-0.0723
RRIRRRPPRLPRPRPRPLCAPRP	0.646
RRIRVRPPRLPRPRPRPSYHPRP	-0.819
RRIRMRPPRLPRPRPRPYMLPRP	-0.0122
RRIRARPPRLPRPRPRPVTHPRP	0.105
RRIRKRPPRLPRPRPRPLRAPRP	1.23
RRIRQRPPRLPRPRPRPPQHPRP	0.718
RRIRGRPPRLPRPRPRPSPGPRP	0.732
RRIRIRPPRLPRPRPRPCRSPRP	-0.365
RRIRSRPPRLPRPRPRPNYPPRP	-0.195
RRIRKRPPRLPRPRPRPQLKPRP	0.275
RRIRPRPPRLPRPRPRPQIRPRP	-0.207
RRIRPRPPRLPRPRPRPKCSPRP	-0.197
RRIRCRPPRLPRPRPRPYEDPRP	-0.01
RRIRARPPRLPRPRPRPCMQPRP	-0.125
RRIRGRPPRLPRPRPRPKYCPRP	0.203
RRIRCRPPRLPRPRPRPTQVPRP	0.0177
RRIRLRPPRLPRPRPRPMDIPRP	-0.568
RRIRWRPPRLPRPRPRPPFFPRP	0.224
RRIRCRPPRLPRPRPRPNMHPRP	-0.615
RRIRARPPRLPRPRPRPVRMPRP	0.618
RRIRMRPPRLPRPRPRPMSGPRP	0.858
RRIRLRPPRLPRPRPRPIFLPRP	-0.333
RRIRSRPPRLPRPRPRPSKNPRP	-0.306
RRIRLRPPRLPRPRPRPNVFPRP	-0.301

Sequence	shrunken log2 fold change
RRIRKRPPRLPRPRPRPQKCPRP	0.00165
RRIRRRPPRLPRPRPRPIVAPRP	0.174
RRIRTRPPRLPRPRPRPDYQPRP	-0.0545
RRIRFRPPRLPRPRPRPHDQPRP	0.0225
RRIRIRPPRLPRPRPRPKRSPRP	-0.335
RRIRIRPPRLPRPRPRPRDSPRP	-0.346
RRIRYRPPRLPRPRPRPKWYPRP	-0.884
RRIRHRPPRLPRPRPRPDWSPRP	0.00911
RRIRGRPPRLPRPRPRPFLPPRP	-0.148
RRIRLRPPRLPRPRPRPICAPRP	0.0264
RRIRWRPPRLPRPRPRPNMYPRP	-0.436
RRIRHRPPRLPRPRPRPKMDPRP	-0.014
RRIRLRPPRLPRPRPRPKWHPRP	-0.207
RRIRARPPRLPRPRPRPNCKPRP	-0.0213
RRIRHRPPRLPRPRPRPWLPPRP	-0.0823
RRIRQRPPRLPRPRPRPNHRPRP	-0.0657
RRIRWRPPRLPRPRPRPDEIPRP	0.0148
RRIRYRPPRLPRPRPRPRFSPRP	-0.144
RRIRTRPPRLPRPRPRPPYHPRP	-0.541
RRIRCRPPRLPRPRPRPQVMPRP	-0.464
RRIRQRPPRLPRPRPRPYKKPRP	-0.0619
RRIRKRPPRLPRPRPRPRVMPRP	0.436
RRIRYRPPRLPRPRPRPICHPRP	-0.305
RRIRTRPPRLPRPRPRPCFEPRP	-0.0858
RRIRVRPPRLPRPRPRPCVYPRP	-0.136

Sequence	shrunken log2 fold change
RRIRARPPRLPRPRPRPFSAPRP	-0.0294
RRIRDRPPRLPRPRPRPTAHPRP	0.547
RRIRGRPPRLPRPRPRPRDVPRP	0.654
RRIRIRPPRLPRPRPRPPMNPRP	-0.368
RRIRKRPPRLPRPRPRPAGYPRP	0.0743
RRIRIRPPRLPRPRPRPAVVPRP	-0.0892
RRIRVRPPRLPRPRPRPDSHPRP	-0.111
RRIRKRPPRLPRPRPRPMNQPRP	-0.153
RRIRQRPPRLPRPRPRPQIDPRP	-0.0357
RRIRWRPPRLPRPRPRPHFIPRP	-0.349
RRIRKRPPRLPRPRPRPVPPPRP	1.85
RRIRYRPPRLPRPRPRPHVEPRP	0.0184
RRIRSRPPRLPRPRPRPTNWPRP	0.0446
RRIRDRPPRLPRPRPRPLWQPRP	0.316
RRIRIRPPRLPRPRPRPFTKPRP	-0.173
RRIRFRPPRLPRPRPRPEMHPRP	-0.195
RRIRLRPPRLPRPRPRPDNIPRP	-0.535
RRIRIRPPRLPRPRPRPIDWPRP	-0.0878
RRIRIRPPRLPRPRPRPAMCPRP	-0.182
RRIRWRPPRLPRPRPRPISRPRP	-0.116
RRIRHRPPRLPRPRPRPYYAPRP	-0.417
RRIRARPPRLPRPRPRPKVIPRP	0.116
RRIRSRPPRLPRPRPRPWLQPRP	-0.0695
RRIRIRPPRLPRPRPRPLNFPRP	-0.434
RRIRMRPPRLPRPRPRPLDHPRP	0.103

Sequence	shrunken log2 fold change
RRIRIRPPRLPRPRPRPQMEPRP	-0.12
RRIRVRPPRLPRPRPRPYDFPRP	-0.00884
RRIRKRPPRLPRPRPRPIETPRP	0.00938
RRIRIRPPRLPRPRPRPPNDPRP	-0.55
RRIRSRPPRLPRPRPRPMIQPRP	0.0624
RRIRVRPPRLPRPRPRPIINPRP	-0.644
RRIRRRPPRLPRPRPRPKGPPRP	0.465
RRIRCRPPRLPRPRPRPLVLPRP	-0.378
RRIRKRPPRLPRPRPRPPKPPRP	0.319
RRIRTRPPRLPRPRPRPWNYPRP	-0.567
RRIRQRPPRLPRPRPRPEGYPRP	-0.0294
RRIRNRPPRLPRPRPRPGFGPRP	0.25
RRIRCRPPRLPRPRPRPPHMPRP	1.56
RRIRQRPPRLPRPRPRPRDWPRP	1.63
RRIRGRPPRLPRPRPRPRKMPRP	0.949
RRIRQRPPRLPRPRPRPPWMPRP	0.172
RRIRRRPPRLPRPRPRPAHCPRP	0.804
RRIRWRPPRLPRPRPRPLKVPRP	-0.496
RRIRNRPPRLPRPRPRPCEIPRP	0.0361
RRIRWRPPRLPRPRPRPILHPRP	0.0591
RRIRCRPPRLPRPRPRPGMWPRP	0.211
RRIRYRPPRLPRPRPRPYARPRP	-0.0987
RRIRDRPPRLPRPRPRPCPRPRP	-0.126
RRIRQRPPRLPRPRPRPSIPPRP	-0.751
RRIRARPPRLPRPRPRPLIHPRP	-0.117

Sequence	shrunken log2 fold change
RRIRIRPPRLPRPRPRPDGEPRP	0.0147
RRIRGRPPRLPRPRPRPDSIPRP	0.495
RRIRKRPPRLPRPRPRPDRPPRP	0.0953
RRIRNRPPRLPRPRPRPIGQPRP	-0.0958
RRIRDRPPRLPRPRPRPLVYPRP	-0.259
RRIRIRPPRLPRPRPRPGCPPRP	-0.304
RRIRLRPPRLPRPRPRPVGSPRP	-0.165
RRIRQRPPRLPRPRPRPRGIPRP	-0.107
RRIRMRPPRLPRPRPRPPTIPRP	0.301
RRIRHRPPRLPRPRPRPNYQPRP	-0.28
RRIRQRPPRLPRPRPRPGWAPRP	0.113
RRIRIRPPRLPRPRPRPMSHPRP	-0.0862
RRIRMRPPRLPRPRPRPWTQPRP	-0.0562
RRIRQRPPRLPRPRPRPEWFPRP	-0.00295
RRIRRRPPRLPRPRPRPLEEPRP	0.597
RRIRFRPPRLPRPRPRPRLAPRP	0.69
RRIRGRPPRLPRPRPRPCQWPRP	0.0251
RRIRSRPPRLPRPRPRPAHPPRP	0.427
RRIRWRPPRLPRPRPRPGNFPRP	-0.149
RRIRFRPPRLPRPRPRPAAIPRP	1.19
RRIRCRPPRLPRPRPRPLRKPRP	0.734
RRIRTRPPRLPRPRPRPRWIPRP	0.0272
RRIRQRPPRLPRPRPRPEKFPRP	-0.029
RRIRNRPPRLPRPRPRPLHQPRP	-0.112
RRIRDRPPRLPRPRPRPSITPRP	-0.197

Source: the supplement of paper PMC9112550, “Optimization of the antimicrobial peptide Bac7 by deep mutational scanning” (BMC Biology, 2022)
